This is an account of results in patent US6132722A, “Recombinant antibody-enzyme fusion proteins” (Bristol-Myers Squibb Company, priority 1998, dated 2000).

The subject of one data set is 3677 melanoma xenografts. The data set is described as follows: In vivo therapy of established s.c. 3677 melanoma xenografts. Set-up: species or system nude mice. The procedure: FIGS. 10A-10D. Therapeutic effects of L49-sFv-bL/CCM combinations in nude mice (six mice/group) with subcutaneous 3677 melanoma xenografts. Conjugates were injected, followed at various times by CCM (arrows on the X-axis). […] FIG. 10A. L49-sFv-bL (1 mg/kg/injection) 12 h before CCM. FIG. 10B. L49-sFv-bL (1 mg/kg/injection) 24 h before CCM. FIG. 10C. L49-sFv-bL (4 mg/kg/injection) 24 h before CCM. FIG. 10D. L49-sFv-bL (4 mg/kg/injection) 48 h before CCM.
In Vivo Therapy Experiments. 3677 tumor-bearing mice (subcutaneous implants, six animals/group, average tumor volume 130 mm^3) were injected with L49-sFv-bL (i.v., 7-8 days post tumor implant), followed 12-48 h later by CCM using doses of fusion protein and prodrug as indicated in the Results section. Treatment with L49-sFv-bL+CCM was repeated 1 week later. Animals were monitored 1-2 times/week for body weight, general health, and tumor growth. Tumor volume was estimated using the formula: longest length×perpendicular dimension^2 /2. Cures were defined as an established tumor that, after treatment, was not palpable for ≥10 tumor volume doubling delays (≥40 days in the 3677 tumor model). Maximum tolerated doses led to less than 20% weight loss, no treatment-related deaths, and were within 50% of the dose where such events took place.
Therapeutic Activity. In vivo therapy experiments were performed using the L49-sFv-bL/CCM combination in nude mice with established s.c. 3677 tumors. […] In the experiments reported here, conjugate treatment was initiated 7-8 days after tumor implant, at which time the tumors were approximately 130 mm^3 in volume. CCM was then administered 12, 24, or 48 h later, and the treatment protocol was repeated after 1 week. Maximum tolerated doses are defined as those that led to less than 20% weight loss, no treatment-related deaths, and were within 50% of the dose where such events took place. A tumor was considered as having been cured once it was not palpable for at least 10 tumor volume doubling times, based on the tumor growth of untreated animals (tumor volume doubling time was 4 days). If an animal was removed from the experiment because of tumor growth, the data from the entire group was no longer plotted, but the remaining animals were followed for tumor size and general health.

Data set [1] deals with cell-surface antigens on SK-MEL 28 melanoma cells. The data set is described as follows: Fluorescence activated cell sorting competition binding assay against FITC-modified whole L49. Set-up: species or system human. The following applies: FACS competition assay. The procedure: FIG. 7 depicts a competition binding assay. 3677 cells were incubated with various combinations of the test samples (L49, L49-sFv-bL, L49-Fab'-bL, and FITC-modified whole L49, keeping the total mAb concentration (test sample+L49-FITC) constant at 400 nM. Fluorescence intensity was determined by fluorescence activated cell sorter analysis.
Competition binding experiments were performed as described by Svensson et al.(Bioconjugate Chem., 3:176-181 (1992)). Immunoassays were performed by coating polystyrene 96 well plates with sp97 (0.1 mL, 2 μg/ml in PBS, overnight, 4° C.) After blocking with specimen diluent (Genetic Systems Corp.) for 1 h at 22° C., the blocking solution was replaced with fresh specimen diluent (0.1 ml) containing serial dilutions of the samples. After 1 h at 22° C. the plates were washed, followed by development with 0.1 mL of a nitrocefin (O'Callaghan et al., Antimicrobial Agents and Chemotherapy, 1:283-288 (1972)) solution (0.1 mM in PBS/1% dimethylformamide, 15 min, 22° C. Absorbance measurements were read in an plate reader using a 490 nm filter with 630 nm as the reference wavelength.
The binding characteristics of the sFv portion of the fusion protein were determined using a fluorescent activated cell sorting competition assay in which fusion protein and FITC-modified whole L49 competed for binding to cell-surface antigens on SK-MEL 28 melanoma cells. […]

Where [2] appears, read: L49-sFv-bL 1 mg/kg/injection, CCM 75 mg/kg/injection 12 h later.

B1: L49-sFv-bL: recombinant fusion protein: L49 anti-p97 single-chain Fv (VH-218 linker-VL) fused to r2-1 mutant E. cloacae β-lactamase, SEQ ID NO: 20 (protein)
chain: MKYLLPTAAAGLLLLAAQPAMAEVQLQESGPSLVKPSQTLSLTCSVTGDSITSGYWNWIRKFPGNKLEYMGYISDSGITYYNPSLKSRISITRDTSKNQYYLQLNFVTAEDTATYNCARRTLATYYAMDYWGQGTSVTVSSGSTSGSGKPGSGEGSTKGDFVMTQTPLSLPVSLGDQASISCRASQSLVHSNGNTYLHWYLQKPGQSPKLLIYRVSNRFSGVPDRFSGSGSGTDFTLKISRVEAEDLGVYFCSQSTHVPPTFGGGTKLEIKRTPVSEKQLAEVVANTITPLMKAQSVPGMAVAVIYQGKPHYYTFGKADIAANKPVTPQTLFELGSISKTFTGVLGGDAIARGEISLDDAVTRYWPQLTGKQWQGIRMLDLATYTAGGLPLQVPDEVTDNASLLRFYQNWQPQWKPGTTRLYANASIGLFGALAVKPSGMPYEQAMTTRVLKPLKLDHTWINVPKAEEAHYAWGYRDGKAVRVSPGMLDAQAYGVKTNVQDMANWVMANMAPENVADASLKQGIALAQSRYWRIGSMYQGLGWEMLNWPVEANTVVETSFGNVALAPLPVAEVNPPAPPVKASWVHKTGSTGGFGSYVAFIPEKQIGIVMLANTSYPNPARVEAAYHILEALQTSEFE
Turning to B1, the toxicity result in the data set with 3677 melanoma xenografts (CCM 24 h post conjugate, both cases (FIG. 10B, 10C)) is on record as “no evidence of toxicity”; in the data set on 3677 melanoma xenografts (L49-sFv-bL then CCM 75, 125 or 175 mg/kg/injection 12 h later) it was “no apparent toxicities”. The “cures in the group of six mice” value in the data set with 3677 melanoma xenografts (setting [2]) is recorded as “four”. Also, the “tumor response of the remaining two animals” value in the data set with 3677 melanoma xenografts (setting [2]) is “partial regressions”. The tumor cures result in the data set with 3677 melanoma xenografts (L49-sFv-bL 1 mg/kg/injection, CCM 125 and 175 mg/kg/injection 12 h later, repeated after 1 week) is “all of the animals”. Further, the tumors cured entry in the data set with 3677 melanoma xenografts (L49-sFv-bL 1 mg/kg/injection, increased CCM dose 24 h later (FIG. 10B)) is “the majority of tumors were cured”; with 3677 melanoma xenografts (L49-sFv-bL 4 mg/kg/injection, CCM 24 h later (FIG. 10C)), “the majority of tumors were cured”. In addition, the “animals cured, of six” value in the data set with 3677 melanoma xenografts (L49-sFv-bL 4 mg/kg/injection, CCM 275 mg/kg/injection 48 h later) is given as “three”. Besides, the tumor regressions entry with 3677 melanoma xenografts (L49-sFv-bL 4 mg/kg/injection, CCM 48 h later (FIG. 10D)) is “all of the mice”. For the same molecule, in data set [1], the “binding to the cell line in competition with FITC-modified whole L49” value was “bound equally well”.
